Results taken from US20250171534A1 (D2M BIOTHERAPEUTICS, published 2025).
Numbering of substitutions follows the chain as printed. Like-named read-outs stand apart in the source and are kept apart here. One block for each binder: values may come before it.

Legend:
[1] = biological target: T1, human LILRB2 expressed on cells (human, UniProt Q8N423 22-597); assay: flow cytometry, Jurkat-LILRB2 cells
T1 construct: In 293T cells it was expressed from pCMV3-LILRB2-GFP; also called CHO-LILRB2; Jurkat-LILRB2
T1 sequence (Q8N423 other isoform, or with tags, fused parts or gaps limits assumed): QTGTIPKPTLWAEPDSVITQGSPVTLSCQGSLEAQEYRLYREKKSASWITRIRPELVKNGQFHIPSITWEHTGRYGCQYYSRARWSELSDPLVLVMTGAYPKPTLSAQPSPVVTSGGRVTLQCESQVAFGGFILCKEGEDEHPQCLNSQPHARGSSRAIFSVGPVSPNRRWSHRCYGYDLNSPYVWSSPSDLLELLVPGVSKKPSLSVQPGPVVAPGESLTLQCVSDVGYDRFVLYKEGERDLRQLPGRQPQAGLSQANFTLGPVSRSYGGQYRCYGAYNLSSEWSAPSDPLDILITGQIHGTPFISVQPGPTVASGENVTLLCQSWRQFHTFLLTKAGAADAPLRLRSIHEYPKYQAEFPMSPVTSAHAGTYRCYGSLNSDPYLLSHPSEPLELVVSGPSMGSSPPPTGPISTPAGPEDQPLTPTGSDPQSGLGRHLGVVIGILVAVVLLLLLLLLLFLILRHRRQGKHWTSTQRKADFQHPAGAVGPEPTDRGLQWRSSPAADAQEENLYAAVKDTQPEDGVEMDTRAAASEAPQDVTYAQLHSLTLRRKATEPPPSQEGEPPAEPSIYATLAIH

[2] = biological target: T2, human LILRB1 expressed on cells (human, UniProt Q8NHL6 24-650); assay: flow cytometry, Jurkat-LILRB1 cells
T2 construct: In 293T cells it was expressed from pCMV3-LILRB1-GFP; also called CHO-LILRB1; Jurkat-LILRB1
T2 sequence (Q8NHL6 other isoform, or with tags, fused parts or gaps limits assumed): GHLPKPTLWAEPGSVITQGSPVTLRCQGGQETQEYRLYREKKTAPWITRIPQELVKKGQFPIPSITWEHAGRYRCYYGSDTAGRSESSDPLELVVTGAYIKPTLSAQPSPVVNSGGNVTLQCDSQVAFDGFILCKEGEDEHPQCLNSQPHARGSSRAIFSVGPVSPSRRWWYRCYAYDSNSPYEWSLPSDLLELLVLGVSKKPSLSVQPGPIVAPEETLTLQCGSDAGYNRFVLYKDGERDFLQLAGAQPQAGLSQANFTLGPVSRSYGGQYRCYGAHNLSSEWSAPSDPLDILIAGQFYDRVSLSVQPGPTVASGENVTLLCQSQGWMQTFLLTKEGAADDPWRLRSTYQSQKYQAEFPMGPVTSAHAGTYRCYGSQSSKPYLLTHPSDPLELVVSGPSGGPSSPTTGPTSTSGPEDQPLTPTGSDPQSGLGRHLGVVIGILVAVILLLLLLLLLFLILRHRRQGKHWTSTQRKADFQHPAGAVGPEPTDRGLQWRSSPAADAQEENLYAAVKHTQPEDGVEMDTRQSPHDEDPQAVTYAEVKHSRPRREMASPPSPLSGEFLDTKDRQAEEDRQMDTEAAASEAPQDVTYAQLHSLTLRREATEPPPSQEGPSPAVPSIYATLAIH

[3] = biological target: T1, human LILRB2 expressed on cells; assay: flow cytometry, Jurkat-LILRB2 cells; remark: listed apart in the source
[4] = biological target: T2, human LILRB1 expressed on cells; assay: flow cytometry, Jurkat-LILRB1 cells; remark: listed apart in the source
[5] = biological target: T3, LILRB2-ECD-HIS (SinoBiological Cat #: 14132-H02H) (human, UniProt Q8N423 22-460); assay: SPR (Carterra), LILRB2-ECD-his
T3 construct: Bought protein; also called monomeric antigen LILRB2-ECD-HIS; not shown: His tag
T3 sequence (Q8N423 other isoform, or with tags, fused parts or gaps H02H H02H): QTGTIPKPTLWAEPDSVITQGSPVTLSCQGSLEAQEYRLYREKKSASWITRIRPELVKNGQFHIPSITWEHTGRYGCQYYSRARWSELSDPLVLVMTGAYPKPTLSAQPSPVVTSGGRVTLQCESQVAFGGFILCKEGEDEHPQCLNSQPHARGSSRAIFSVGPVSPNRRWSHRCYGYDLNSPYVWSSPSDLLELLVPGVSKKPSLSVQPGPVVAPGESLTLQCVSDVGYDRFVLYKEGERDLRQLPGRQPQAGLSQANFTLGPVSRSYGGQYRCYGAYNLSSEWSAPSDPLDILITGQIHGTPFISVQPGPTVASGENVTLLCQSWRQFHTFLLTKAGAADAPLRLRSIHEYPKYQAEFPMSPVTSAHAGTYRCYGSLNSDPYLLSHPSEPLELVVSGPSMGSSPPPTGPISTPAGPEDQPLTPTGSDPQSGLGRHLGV

[6] = biological target: T4, cynomolgus monkey putative LILRB2 (antigen of the Gator measurement) (cynomolgus monkey); assay: BLI (Gator), cyno RB2-his
T4 construct: also called cynomolgus monkey LILRB2

[7] = biological target: T3, LILRB2-ECD-HIS (SinoBiological Cat #: …); assay: BLI (Gator), RB2-ECD-his
[8] = biological target: T1, human LILRB2 expressed on cells; assay: flow cytometry, Jurkat-LILRB2 cells; blocked ligand: APC HLA-G monomer tetramer
[9] = biological target: T5, LILRB1-ECD-HIS (SinoBiological Cat #: 16014-H02H) (human, UniProt Q8NHL6 24-461); assay: BLI (Gator), RB1-ECD-his
T5 construct: Bought protein; also called monomeric antigen LILRB1-ECD-HIS; not shown: His tag
T5 sequence (Q8NHL6 other isoform, or with tags, fused parts or gaps H02H H02H): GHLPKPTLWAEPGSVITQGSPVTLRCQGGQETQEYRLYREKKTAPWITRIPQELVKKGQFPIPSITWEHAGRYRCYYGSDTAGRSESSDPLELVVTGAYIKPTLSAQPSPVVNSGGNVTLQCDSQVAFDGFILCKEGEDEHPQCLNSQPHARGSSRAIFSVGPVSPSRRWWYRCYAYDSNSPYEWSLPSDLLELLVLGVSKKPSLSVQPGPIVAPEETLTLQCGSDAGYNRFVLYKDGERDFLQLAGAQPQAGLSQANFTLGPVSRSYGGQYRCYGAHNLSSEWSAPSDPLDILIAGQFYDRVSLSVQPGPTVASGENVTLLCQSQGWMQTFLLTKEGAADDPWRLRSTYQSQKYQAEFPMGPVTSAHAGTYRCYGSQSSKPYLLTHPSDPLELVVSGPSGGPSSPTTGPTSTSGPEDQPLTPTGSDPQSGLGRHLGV

[10] = biological target: T5, LILRB1-ECD-HIS (SinoBiological Cat #: …); assay: SPR (Carterra), LILRB1-ECD-his
[11] = biological target: T2, human LILRB1 expressed on cells; assay: flow cytometry, Jurkat-LILRB1 cells; blocked ligand: APC HLA-G trimer tetramer
[12] = biological target: T2, human LILRB1 expressed on cells; assay: as above; remark: listed apart in the source
[13] = biological target: T1, human LILRB2 expressed on cells; assay: flow cytometry on CHO-LILRB2 cells (CHO-RB2), titrated antibody, labelled anti-human Fc, gMFI
[14] = biological target: T6, cynomolgus (monkey) LILRB2 expressed on CHO cells (cynomolgus monkey); assay: flow cytometry on CHO-cynoLILRB2 cells, non-linear fit of the curves of FIG. 26D
T6 construct: whole, on cells; Putative orthologue; also called cynoLILRB2; cynoRB2

[15] = biological target: T7, LILRA6 expressed on cells (human, UniProt Q6PI73 24-481); assay: flow cytometry on CHO-LILRA6 cells, non-linear fit of the curves of FIG. 26F
T7 construct: whole, on cells; GFP-tagged; also called human LILRA6; CHO-LILRA6
T7 sequence (Q6PI73 24-481): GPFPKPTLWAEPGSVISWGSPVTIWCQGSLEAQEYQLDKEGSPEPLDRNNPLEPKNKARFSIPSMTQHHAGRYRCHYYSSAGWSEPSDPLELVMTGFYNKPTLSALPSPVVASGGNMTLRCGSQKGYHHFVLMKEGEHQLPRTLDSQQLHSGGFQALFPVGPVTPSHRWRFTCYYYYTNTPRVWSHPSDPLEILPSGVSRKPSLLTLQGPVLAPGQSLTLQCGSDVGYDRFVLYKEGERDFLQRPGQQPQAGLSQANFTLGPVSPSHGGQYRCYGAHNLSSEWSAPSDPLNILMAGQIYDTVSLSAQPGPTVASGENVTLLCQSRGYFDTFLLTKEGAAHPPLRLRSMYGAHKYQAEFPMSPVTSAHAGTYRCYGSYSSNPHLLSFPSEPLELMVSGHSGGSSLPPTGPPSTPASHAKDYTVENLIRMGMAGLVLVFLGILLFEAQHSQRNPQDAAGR

[16] = biological target: T8, LILRA1 expressed on cells (human, UniProt O75019 17-489); assay: flow cytometry on CHO-LILRA1 cells (CHO-RA1), titrated antibody, labelled anti-human Fc, gMFI
T8 construct: whole, on cells; GFP-tagged; also called human LILRA1; CHO-LILRA1
T8 sequence (O75019 17-489): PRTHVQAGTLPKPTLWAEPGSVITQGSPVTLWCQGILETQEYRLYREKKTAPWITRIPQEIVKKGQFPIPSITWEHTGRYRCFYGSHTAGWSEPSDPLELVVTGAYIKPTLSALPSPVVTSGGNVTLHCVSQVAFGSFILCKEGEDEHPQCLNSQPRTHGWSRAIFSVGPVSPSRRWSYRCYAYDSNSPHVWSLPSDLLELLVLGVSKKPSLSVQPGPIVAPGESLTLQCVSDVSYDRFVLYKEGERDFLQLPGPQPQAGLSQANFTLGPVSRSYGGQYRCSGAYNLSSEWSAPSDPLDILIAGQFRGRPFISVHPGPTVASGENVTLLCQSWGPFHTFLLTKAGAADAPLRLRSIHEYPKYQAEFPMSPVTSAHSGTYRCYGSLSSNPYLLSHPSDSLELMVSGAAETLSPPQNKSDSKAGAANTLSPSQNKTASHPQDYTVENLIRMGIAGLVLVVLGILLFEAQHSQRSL

[17] = biological target: T6, cynomolgus (monkey) LILRB2 expressed on …; assay: flow cytometry on CHO-cynoLILRB2 cells (CHO-cyno RB2), titrated antibody, labelled anti-human Fc, gMFI
[18] = biological target: T6, cynomolgus (monkey) LILRB2 expressed on …; assay: flow cytometry on CHO-cynoLILRB2 cells
[19] = biological target: T1, human LILRB2 expressed on cells; assay: flow cytometry on CHO-LILRB2 cells, non-linear fit of the curves of FIG. 26B
[20] = biological target: T9, LILRB3 expressed on cells (human, UniProt O75022 24-631); assay: flow cytometry on CHO-LILRB3 cells (CHO-RB3), titrated antibody, labelled anti-human Fc, gMFI
T9 construct: whole, on cells; Expressed with a GFP tag from the bought plasmid; also called human LILRB3; CHO-LILRB3

[21] = biological target: T2, human LILRB1 expressed on cells; assay: flow cytometry on CHO-LILRB1 cells, non-linear fit of the curves of FIG. 26A
[22] = biological target: T2, human LILRB1 expressed on cells; assay: flow cytometry on CHO-LILRB1 cells (CHO-RB1), titrated antibody, labelled anti-human Fc, gMFI
[23] = biological target: T8, LILRA1 expressed on cells; assay: flow cytometry on CHO-LILRA1 cells, non-linear fit of the curves of FIG. 26E
[24] = biological target: T9, LILRB3 expressed on cells; assay: flow cytometry on CHO-LILRB3 cells, non-linear fit of the curves of FIG. 26C
[25] = biological target: T1, human LILRB2 expressed on cells; assay: flow cytometry, CHO-LILRB2 cells
[26] = biological target: T2, human LILRB1 expressed on cells; assay: flow cytometry, CHO-LILRB1 cells
[27] = biological target: T3, LILRB2-ECD-HIS (SinoBiological Cat #: …); assay: SPR (Carterra LSA), antibody captured, antigen injected;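 note: kd obtained from kinetic analysis of antibody binding to the antigen, with association and dissociation phases fitted in the instrument software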
[28] = biological target: T5, LILRB1-ECD-HIS (SinoBiological Cat #: …); assay: as above
[29] = biological target: T1, human LILRB2 expressed on cells; assay: flow cytometry, CHO-LILRB2 cells; remark: listed apart in the source

B1: D2M002-103 (antibody, V domains shown)
VH: QVQLVQSGAEVKKPGASVKVSCKASGYTFTRYVMHWVRQAPGQRLEWMGWINPNNEETKYSQKFKGRVTLTRDTSASTAYMELSSLRSEDTAVYYCARADLEILPYYDHARYAMDYWGQGTLVTVSS
VL: DIQMTQSPSSVSASVGDRVTITCRASENIYSHLAWYQQKPGKAPKLLVYNAKSLQSGVPSRFSGSGSGTDFTLTISSLQPEDFATYYCQHFWSTPPTFGGGTKVEIK
notes: also called P212_F01
EC50 [1]: 0.065 µg/mL | EC50 [2]: 0.136 µg/mL | EC50 (read off the curve) [3]: ~0.06 µg/mL | EC50 (read off the curve) [4]: ~0.1 µg/mL | Kd [5]: 0.165 nM | koff [5]: 0.000129 s⁻¹ | kon [5]: 781000 M⁻¹ s⁻¹ | Kd [6]: 1.03 nM | Kd [7]: 0.136 nM | IC50 [8]: 0.009 µg/mL | Kd [9]: 1.1 nM | Kd [10]: 4.9 nM | koff [10]: 0.00101 s⁻¹ | kon [10]: 206000 M⁻¹ s⁻¹ | IC50 [11]: 0.07 µg/mL | IC50 (read off the curve) [12]: ~0.07 µg/mL

B2: D2M002-103HV1 (antibody, V domains shown)
VH: B1 VH with M48I, W50Y
VL: B1 VL
notes: Humanized and optimized variant of the D2M002-002 lineage
EC50 (read off the curve) [13]: ~0.06 µg/mL | EC50 [14]: 0.059 µg/mL | EC50 [15]: 0.0473 µg/mL | EC50 (read off the curve) [16]: ~0.2 µg/mL | EC50 (read off the curve) [17]: ~0.06 µg/mL | EC50 [18]: 0.059 µg/mL | EC50 [19]: 0.0599 µg/mL | MaxMFI [19]: 30000 | EC50 (read off the curve) [20]: ~0.1 µg/mL | EC50 [21]: 0.0941 µg/mL | MaxMFI [21]: 111000 | EC50 (read off the curve) [22]: ~0.1 µg/mL | EC50 [23]: 0.157 µg/mL | MaxMFI [23]: 20300 | EC50 [24]: 0.12 µg/mL

Results, then the binder that gave them:

binding result [25]: no binding (tested: 5 µg/mL) | EC50 [26]: 0.004 µg/mL | gMFI (max) [26]: 14300 | Kd [27]: 1000 nM | Kd [28]: 23.6 nM
B3: D2M002-004 (antibody, human IgG1, V domains shown)
VH: EVQLQQSGAELVRPGALVKLSCKASGFNIKDYYMHWVKQRPEQGLEWIGWIDPESGNTIYDPKFQGKASMTADTSSNTAYLQLSSLTSEDTAVYYCARLDGSSYYAMDYWGQGTSVTVSS
VL: DILLTQSPASLAVSLGQRATISCRASESVDSYGNSFMHWYQQKPGQPPKLLIYLASNLESGVPARFSGSGSRTDFTLTIDPVEADDAATYYCQQNNEDPLTFGAGTKLELK
notes: Hit; also called clone #4

binding result [29]: no binding (tested: 5 µg/mL) | Kd [27]: 1000 nM | Kd [28]: 94.4 nM
B4: #45 (antibody, human IgG1, V domains shown)
VH: QIQLLQSGPELKKPGETVKISCKASGYTFTDYSMHWVKQAPGKGLKWMGWINTETGEPTYADDFKGRFAFSLETSASTAYLQINNLKNEDTATYFCARVVRRGYFDVWGAGTTVTVSS
VL: DIQMTQSPASLSASVGETVTITCRASGNIHNYLAWYQQKQGKSPQVLVYNAKTLADGVPSRFSGSGSGTQYSLKINSLQPEDFGSYYCQHFWSTPFTFGSGTKLEIK
notes: also called D2M002-045
